The text below walks through data of patent publication US10314894B2, “Treatment of cardio-renal disease using PCSK6” (THE CLEVELAND CLINIC FOUNDATION, priority 2014, dated 2019).

One experiment addresses T1, corin mutant S472G (Homo sapiens, UniProt Q9Y5Q5, S472G).
T1 construct: expressed in transfected cells; host or cells: HEK293
T1 sequence (Q9Y5Q5 1-1042 S472G): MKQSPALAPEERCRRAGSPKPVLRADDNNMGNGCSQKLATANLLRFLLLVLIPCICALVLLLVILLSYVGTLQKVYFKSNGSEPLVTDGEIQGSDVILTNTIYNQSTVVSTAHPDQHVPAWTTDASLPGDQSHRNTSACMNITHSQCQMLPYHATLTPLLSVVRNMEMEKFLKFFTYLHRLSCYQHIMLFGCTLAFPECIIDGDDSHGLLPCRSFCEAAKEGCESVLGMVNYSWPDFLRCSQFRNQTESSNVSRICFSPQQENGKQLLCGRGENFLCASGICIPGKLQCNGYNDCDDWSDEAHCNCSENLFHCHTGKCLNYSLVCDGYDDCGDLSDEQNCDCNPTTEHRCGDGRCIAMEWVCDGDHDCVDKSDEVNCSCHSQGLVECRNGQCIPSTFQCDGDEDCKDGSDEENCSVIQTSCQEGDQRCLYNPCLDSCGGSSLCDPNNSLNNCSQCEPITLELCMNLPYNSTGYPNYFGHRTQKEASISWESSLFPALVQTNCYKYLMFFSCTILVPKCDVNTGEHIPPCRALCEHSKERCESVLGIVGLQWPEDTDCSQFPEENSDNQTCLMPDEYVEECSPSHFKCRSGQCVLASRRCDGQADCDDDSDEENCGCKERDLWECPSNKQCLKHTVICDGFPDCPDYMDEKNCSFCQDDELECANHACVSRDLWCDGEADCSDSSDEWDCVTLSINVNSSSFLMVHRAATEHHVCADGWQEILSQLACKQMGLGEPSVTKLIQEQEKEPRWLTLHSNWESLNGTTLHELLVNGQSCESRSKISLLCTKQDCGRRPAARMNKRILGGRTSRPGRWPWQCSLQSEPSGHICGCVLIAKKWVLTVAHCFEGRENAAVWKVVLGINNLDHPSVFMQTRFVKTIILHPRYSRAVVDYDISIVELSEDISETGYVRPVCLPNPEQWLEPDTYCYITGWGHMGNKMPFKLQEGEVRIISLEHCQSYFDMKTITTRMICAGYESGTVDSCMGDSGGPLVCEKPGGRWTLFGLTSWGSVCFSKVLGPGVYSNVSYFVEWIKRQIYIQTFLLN
The experiment is described as follows: PCSK6-mediated corin activation in HEK293 cells, corin mutant S472G. The format is cell-based. Conditions: Western, densitometry. An excerpt:
(§1) Plasmids expressing human corin WT and mutants R801A, S985A, T555I, Q568P, T555I/Q568P, K317E, S472G and R539C were reported previously. Dong, N. et al., J Biol Chem 289, 17909-17916 (2014); Knappe et al., J Biol Chem 278, 52363-52370 (2003); Wu et al., J Biol Chem 277, 16900-16905. (2002). Plasmids expressing human PCSK1-9 were made by cloning respective cDNAs into pcNDA3.1 vector. Recombinant corin and PCSK proteins encoded by these plasmids contained a C-terminal V5 or flag tag for protein detection in Western blotting.
HEK293 and HL-1 cells were transfected with corin or PCSK6 expression plasmids. After 48-72 h, cells were lysed in a buffer containing 25 mM Tris-HCl, pH 7.4, 150 mM NaCl, 1 mM EDTA, 1% (v/v) NP-40, and 1% (v/v) protease inhibitor cocktail. Recombinant corin and PCSK6 proteins were immunoprecipitated with an anti-V5 or anti-flag antibody. Western blotting was carried out to analyze corin expression and activation or PCSK6 expression with or without reducing agents. Percentage of corin activation (corin-p vs. corin fragments) was quantified by densitometric analysis of Western blots.

For a further experiment, the target named is T2, recombinant human corin (Homo sapiens, UniProt Q9Y5Q5).
T2 construct: expressed in transfected cells; host or cells: HEK293
T2 sequence (Q9Y5Q5 1-1042): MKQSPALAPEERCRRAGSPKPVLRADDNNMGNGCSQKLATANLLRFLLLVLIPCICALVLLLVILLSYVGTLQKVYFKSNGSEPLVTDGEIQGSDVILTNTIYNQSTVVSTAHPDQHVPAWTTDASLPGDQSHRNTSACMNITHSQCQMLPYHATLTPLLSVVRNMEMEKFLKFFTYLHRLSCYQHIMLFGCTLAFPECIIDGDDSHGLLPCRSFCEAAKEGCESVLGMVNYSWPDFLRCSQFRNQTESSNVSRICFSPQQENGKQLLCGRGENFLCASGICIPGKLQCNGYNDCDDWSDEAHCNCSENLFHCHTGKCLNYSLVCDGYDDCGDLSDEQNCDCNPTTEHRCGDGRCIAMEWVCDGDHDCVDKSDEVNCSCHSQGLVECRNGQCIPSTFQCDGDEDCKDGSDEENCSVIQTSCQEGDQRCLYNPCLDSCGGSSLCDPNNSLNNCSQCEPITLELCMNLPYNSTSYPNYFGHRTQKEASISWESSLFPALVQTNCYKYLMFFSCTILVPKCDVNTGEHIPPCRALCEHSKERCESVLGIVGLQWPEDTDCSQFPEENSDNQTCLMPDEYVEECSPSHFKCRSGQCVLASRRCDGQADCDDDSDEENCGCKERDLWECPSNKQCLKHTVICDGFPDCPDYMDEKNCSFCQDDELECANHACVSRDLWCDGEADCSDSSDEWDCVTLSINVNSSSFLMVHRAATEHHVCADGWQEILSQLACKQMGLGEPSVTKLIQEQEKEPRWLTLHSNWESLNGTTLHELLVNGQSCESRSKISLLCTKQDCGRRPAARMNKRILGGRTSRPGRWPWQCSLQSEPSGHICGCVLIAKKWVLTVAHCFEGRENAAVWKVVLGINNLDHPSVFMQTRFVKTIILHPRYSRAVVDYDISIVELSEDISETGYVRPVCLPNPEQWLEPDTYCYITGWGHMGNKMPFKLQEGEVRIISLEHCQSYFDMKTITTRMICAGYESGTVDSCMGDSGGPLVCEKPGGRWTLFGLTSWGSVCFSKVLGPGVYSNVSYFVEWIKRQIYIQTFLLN
Nature of the experiment: PCSK1-9 plasmids transfected in HEK293 cells expressing recombinant human corin (Western analysis). The format is cell-based. Conditions: plasmid transfected.
From the text: The PCSK family has 9 members. PCSK1-9 plasmids were transfected in HEK293 cells expressing recombinant human corin. […] By RT-PCR, PCSK6 mRNA was detected in HEK293 and HL-1 cells and in mouse and human hearts where corin is normally expressed. Yan et al., J Biol Chem 274, 14926-14935 (1999). The results were consistent with previous reports of PCSK6 expression in atrial and ventricular cardiomyocytes. Beaubien et al., Cell Tissue Res 279, 539-549 (1995).
as §1
HEK293 and HL-1 cells were transfected with corin or PCSK6 expression plasmids. After 48-72 h, cells were lysed in a buffer containing 25 mM Tris-HCl, pH 7.4, 150 mM NaCl, 1 mM EDTA, 1% (v/v) NP-40, and 1% (v/v) protease inhibitor cocktail. […] Percentage of corin activation (corin-p vs. corin fragments) was quantified by densitometric analysis of Western blots.

B1: proprotein convertase subtilisin/kexin-6 (protein, listed as Homo sapiens)
chain: MPPRAPPAPGPRPPPRAAAATDTAAGAGGAGGAGGAGGPGFRPLAPRPWRWLLLLALPAACSAPPPRPVYTNHWAVQVLGGPAEADRVAAAHGYLNLGQIGNLEDYYHFYHSKTFKRSTLSSRGPHTFLRMDPQVKWLQQQEVKRRVKRQVRSDPQALYFNDPIWSNMWYLHCGDKNSRCRSEMNVQAAWKRGYTGKNVVVTILDDGIERNHPDLAPNYDSYASYDVNGNDYDPSPRYDASNENKHGTRCAGEVAASANNSYCIVGIAYNAKIGGIRMLDGDVTDVVEAKSLGIRPNYIDIYSASWGPDDDGKTVDGPGRLAKQAFEYGIKKGRQGLGSIFVWASGNGGREGDYCSCDGYTNSIYTISVSSATENGYKPWYLEECASTLATTYSSGAFYERKIVTTDLRQRCTDGHTGTSVSAPMVAGIIALALEANSQLTWRDVQHLLVKTSRPAHLKASDWKVNGAGHKVSHFYGFGLVDAEALVVEAKKWTAVPSQHMCVAASDKRPRSIPLVQVLRTTALTSACAEHSDQRVVYLEHVVVRTSISHPRRGDLQIYLVSPSGTKSQLLAKRLLDLSNEGFTNWEFMTVHCWGEKAEGQWTLEIQDLPSQVRNPEKQGKLKEWSLILYGTAEHPYHTFSAHQSRSRMLELSAPELEPPKAALSPSQVEVPEDEEDYTAQSTPGSANILQTSVCHPECGDKGCDGPNADQCLNCVHFSLGSVKTSRKCVSVCPLGYFGDTAARRCRRCHKGCETCSSRAATQCLSCRRGFYHHQEMNTCVTLCPAGFYADESQKNCLKCHPSCKKCVDEPEKCTVCKEGFSLARGSCIPDCEPGTYFDSELIRCGECHHTCGTCVGPGREECIHCAKNFHFHDWKCVPACGEGFYPEEMPGLPHKVCRRCDENCLSCAGSSRNCSRCKTGFTQLGTSCITNHTCSNADETFCEMVKSNRLCERKLFIQFCCRTCLLAG
modifications: C-terminal FLAG tag
With B1, in the experiment with corin mutant S472G, the “reduction in PCSK6-mediated corin activation compared with WT corin” value was determined as 99%. The “corin activation on PCSK overexpression (loss of corin zymogen band)” value in the experiment with recombinant human corin is recorded as “enhanced corin activation”.
